Laboratory results: paper PMC6123407

Columns and labels:
Experiment in all cases: purified protein
purified protein [1] = substrate: CC(C)(COP(=O)(O)OP(=O)(O)OC[C@H]1O[C@@H](n2cnc3c(N)ncnc32)[C@H](O)[C@@H]1OP(=O)(O)O)[C@@H](O)C(=O)NCCC(=O)NCCSC(=O)/C=C/c1ccc(O)cc1; conditions: 100 μM agmatine sulphate, 50 mM Tris-HCl pH 7.5, room temperature, apparent Km, acyl-donor
purified protein [2] = substrate: COc1cc(/C=C/C(=O)SCCNC(=O)CCNC(=O)[C@H](O)C(C)(C)COP(=O)(O)OP(=O)(O)OC[C@H]2O[C@@H](n3cnc4c(N)ncnc43)[C@H](O)[C@@H]2OP(=O)(O)O)ccc1O; conditions: 100 μM agmatine sulphate, 50 mM Tris-HCl pH 7.5, room temperature, apparent Km, acyl-donor
purified protein [3] = substrate: N=C(N)NCCCCN; conditions: 100 μM p-coumaroyl-CoA, 50 mM Tris-HCl pH 7.5, room temperature, apparent Km, acyl-acceptor
purified protein [4] = substrate: NCCCCN; conditions: 100 μM p-coumaroyl-CoA, 50 mM Tris-HCl pH 7.5, room temperature, apparent Km, acyl-acceptor

B1: HvACT1 (agmatine coumaroyltransferase, ACT) (Hordeum vulgare) (protein)
chain: MKITVHSSKAVKPEYGACGLAPGCTADVVPLTVLDKANFDTYISVIYAFHAPAPPNAVLEAGLGRALVDYREWAGRLGVDASGGRAILLNDAGARFVEATADVALDSVMPLKPTSEVLSLHPSGDDGPEELMLIQVTRFACGSLVVGFTTQHIVSDGRSTGNFFVAWSQATRGAAIDPVPVHDRASFFHPREPLHVEYEHRGVEFKPCEKAHDVVCGADGDEDEVVVNKVHFSREFISKLKAHASAGAPRPCSTLQCVVAHLWRSMTMARGLDGGETTSVAIAVDGRARMSPQVPDGYTGNVILWARPTTTAGELVTRPVKHAVELISREVARINDGYFKSFIDFANSGAVEKERLVATADAADMVLSPNIEVDSWLRIPFYDMDFGGGRPFFFMPSYLPVEGLLILLPSFLGDGSVDAYVPLFSRDMNTFKNCCYSLD
Km (purified protein [1]): 1.1 ± 0.12 µM
kcat (purified protein [1]): 39 s⁻¹
kcat/Km (purified protein [1]): 3.5e+07 M⁻¹ s⁻¹
Km (purified protein [2]): 2.0 ± 0.14 µM
kcat (purified protein [2]): 18 s⁻¹
kcat/Km (purified protein [2]): 9e+06 M⁻¹ s⁻¹
Km (purified protein [3]): 1.7 ± 0.13 µM
kcat (purified protein [3]): 38 s⁻¹
kcat/Km (purified protein [3]): 2.2e+07 M⁻¹ s⁻¹
Km (purified protein [4]): 7,200 ± 530 μM
kcat (purified protein [4]): 4.7 s⁻¹
kcat/Km (purified protein [4]): 650 M⁻¹ s⁻¹
